Publication PMC10140031

Legend:
[1] = target: His-ISG65_(18-363)-Avi, C-terminally biotinylated (T. b. gambiense); test: SPR; biotinylated His-ISG65_(18-363)-Avi immobilised on Series S sensor chip CAP, BIAcore T200, 25 °C; 20 mM HEPES pH 7.5, 150 mM NaCl, 3 mM EDTA, 0.005% TWEEN-20; analytes C3d and C3d mutants (0.78-50 nM), native C3, C3b, C3MA, C3c
[2] = target: His-C3d-Avi, biotinylated (human); test: SPR; biotinylated His-C3d-Avi immobilised on Series S sensor chip CAP, BIAcore T200, 25 °C; 20 mM HEPES pH 7.5, 150 mM NaCl, 3 mM EDTA, 0.005% TWEEN-20; analytes ISG65 and ISG65 mutants 1.5-100 nM
[3] = target: native human complement C3 (human) (UniProt P01024)
[4] = target: Alexa Fluor 594 labelled human C3b (human) (UniProt P01024); test: flow cytometry on cells; competition: recombinant ISG65 at 1.5-fold molar excess preincubated with AF594 labelled C3b for 10 min before addition to T. b. gambiense cells on ice
[5] = target: His-C3d-Avi, biotinylated; test: SPR
[6] = target: His-ISG65_(18-363) Glu302Ala (T. b. gambiense); test: SPR; His-ISG65_(18-363) covalently immobilised via amine coupling; C3a (8-0.25 µM) flown over at 30 µl/min, 100 s association, 300 s dissociation; regeneration 1 M NaCl
[7] = target: His-ISG65_(18-363) Lys97Ala (T. b. gambiense); test: as above
[8] = target: His-ISG65_(18-363), extracellular domain of invariant surface glycoprotein 65 of T. b. gambiense (T. b. gambiense); test: as above
[9] = target: His-ISG65_(18-363), extracellular domain of invariant surface glycoprotein 65 of T. b. gambiense (T. b. gambiense); test: cross-linking; ISG65 and C3b mixed 2:1, 100x molar excess of DSA, 20 mM HEPES pH 7.5, 150 mM NaCl, room temperature 30 min; SDS-PAGE

Chain of human complement C3a (P01024 672-748): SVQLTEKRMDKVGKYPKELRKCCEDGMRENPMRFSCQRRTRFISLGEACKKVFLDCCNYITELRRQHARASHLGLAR
Chain of Alexa Fluor 594 labelled human C3b (human) (P01024 23-667, chain 1 of 2): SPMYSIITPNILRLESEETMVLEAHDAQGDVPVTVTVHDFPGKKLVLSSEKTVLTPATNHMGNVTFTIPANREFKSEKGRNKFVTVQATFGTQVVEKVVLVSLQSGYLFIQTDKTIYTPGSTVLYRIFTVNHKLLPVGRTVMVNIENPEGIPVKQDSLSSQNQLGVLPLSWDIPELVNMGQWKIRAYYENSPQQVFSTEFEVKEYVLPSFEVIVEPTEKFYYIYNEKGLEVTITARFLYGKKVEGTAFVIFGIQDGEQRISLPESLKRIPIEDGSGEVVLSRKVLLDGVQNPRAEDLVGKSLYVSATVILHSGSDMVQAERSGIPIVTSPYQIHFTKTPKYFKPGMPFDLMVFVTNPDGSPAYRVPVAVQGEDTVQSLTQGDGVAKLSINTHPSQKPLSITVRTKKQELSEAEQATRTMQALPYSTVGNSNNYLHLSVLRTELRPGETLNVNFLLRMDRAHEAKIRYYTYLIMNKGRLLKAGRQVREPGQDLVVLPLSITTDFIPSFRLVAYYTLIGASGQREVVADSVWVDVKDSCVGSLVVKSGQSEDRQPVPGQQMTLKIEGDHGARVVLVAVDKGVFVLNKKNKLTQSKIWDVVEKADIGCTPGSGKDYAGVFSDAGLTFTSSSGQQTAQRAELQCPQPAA
Chain of Alexa Fluor 594 labelled human C3b (human) (P01024 749-1663, chain 2 of 2): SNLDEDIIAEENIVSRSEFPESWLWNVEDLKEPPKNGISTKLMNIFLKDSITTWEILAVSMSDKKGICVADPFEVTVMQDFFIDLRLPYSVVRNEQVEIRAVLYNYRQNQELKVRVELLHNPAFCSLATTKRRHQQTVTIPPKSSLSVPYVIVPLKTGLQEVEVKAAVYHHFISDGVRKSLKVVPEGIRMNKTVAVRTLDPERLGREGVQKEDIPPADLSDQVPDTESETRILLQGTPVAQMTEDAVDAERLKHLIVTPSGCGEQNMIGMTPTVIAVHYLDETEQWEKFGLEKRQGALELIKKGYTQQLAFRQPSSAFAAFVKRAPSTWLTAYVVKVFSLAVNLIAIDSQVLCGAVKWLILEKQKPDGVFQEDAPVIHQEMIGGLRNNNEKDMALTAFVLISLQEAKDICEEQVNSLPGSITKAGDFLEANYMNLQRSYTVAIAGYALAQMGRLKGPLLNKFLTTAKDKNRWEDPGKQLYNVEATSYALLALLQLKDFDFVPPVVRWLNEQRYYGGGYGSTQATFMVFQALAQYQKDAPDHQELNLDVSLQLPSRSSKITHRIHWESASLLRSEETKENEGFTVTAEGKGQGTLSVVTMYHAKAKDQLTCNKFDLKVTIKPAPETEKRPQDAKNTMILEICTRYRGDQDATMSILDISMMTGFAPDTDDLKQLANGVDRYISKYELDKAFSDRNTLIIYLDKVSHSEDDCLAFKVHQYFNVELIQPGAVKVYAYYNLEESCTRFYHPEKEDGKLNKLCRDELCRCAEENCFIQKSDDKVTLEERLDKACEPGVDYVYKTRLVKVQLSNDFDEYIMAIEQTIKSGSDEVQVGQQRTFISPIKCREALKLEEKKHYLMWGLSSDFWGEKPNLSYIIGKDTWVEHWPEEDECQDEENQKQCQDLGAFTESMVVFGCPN
Chain of native human complement C3 (human) (P01024 23-667, chain 1 of 2): as the sequence (P01024 23-667, chain 1 of 2) above
Chain of native human complement C3 (human) (P01024 672-1663, chain 2 of 2): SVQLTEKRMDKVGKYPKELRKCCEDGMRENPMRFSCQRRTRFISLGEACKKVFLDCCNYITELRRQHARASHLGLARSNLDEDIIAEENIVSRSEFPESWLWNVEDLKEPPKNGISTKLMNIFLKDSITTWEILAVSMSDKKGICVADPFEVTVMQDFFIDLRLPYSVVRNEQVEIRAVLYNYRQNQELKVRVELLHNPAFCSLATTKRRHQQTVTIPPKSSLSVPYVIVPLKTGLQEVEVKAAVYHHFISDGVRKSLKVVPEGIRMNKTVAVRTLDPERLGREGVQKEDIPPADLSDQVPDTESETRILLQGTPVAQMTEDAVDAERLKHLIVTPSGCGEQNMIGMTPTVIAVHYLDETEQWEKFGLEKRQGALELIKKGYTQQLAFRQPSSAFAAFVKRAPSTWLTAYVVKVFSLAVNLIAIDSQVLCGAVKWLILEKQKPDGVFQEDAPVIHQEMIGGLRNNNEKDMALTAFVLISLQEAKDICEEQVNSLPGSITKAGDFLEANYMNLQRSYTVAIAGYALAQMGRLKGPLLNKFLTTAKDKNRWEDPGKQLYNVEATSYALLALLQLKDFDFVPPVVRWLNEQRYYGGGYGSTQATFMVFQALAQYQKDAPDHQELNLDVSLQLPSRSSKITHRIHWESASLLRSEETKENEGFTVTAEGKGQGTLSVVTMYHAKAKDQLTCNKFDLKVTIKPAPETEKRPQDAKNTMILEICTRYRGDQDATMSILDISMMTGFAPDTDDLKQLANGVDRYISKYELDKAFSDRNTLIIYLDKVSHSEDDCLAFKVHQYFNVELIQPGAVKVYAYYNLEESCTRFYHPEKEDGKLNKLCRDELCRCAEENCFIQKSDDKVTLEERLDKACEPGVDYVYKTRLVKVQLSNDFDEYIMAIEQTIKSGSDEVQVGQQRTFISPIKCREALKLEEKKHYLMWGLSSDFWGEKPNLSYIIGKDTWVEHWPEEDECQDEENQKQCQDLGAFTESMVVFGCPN

Substance: C3MA, methylamine-treated human C3 (from UniProt P01024 23-667; P01024 672-1663) (natural protein)
- Kd [1]: 18 nM

Substance: His-C3d Arg1134Ala (domain or fragment)
- KD relative to wild type (so in the source) [1]: 30%

Substance: His-C3d, recombinant human C3d (domain or fragment)
- Kd [1]: 7 nM

Substance: His-ISG65_(18-363) Trp211Ala (domain or fragment)
- KD relative to wild type (so in the source) [2]: 42%

Substance: His-ISG65_(18-363), extracellular domain of invariant surface glycoprotein 65 of T. b. gambiense (domain or fragment)
- AP50 haemolysis assay: lysis of rabbit erythrocytes in human serum after activation of the alternative pathway, soluble ISG65 7.5-0 µM [3]: < 90%
- percent reduction of C3b surface binding to T. b. gambiense cells [4]: 60%

Substance: His-ISG65_(18-363), extracellular domain of invariant surface glycoprotein 65 of T. b. gambiense T297A
- percent of parent [5]: 15%

Substance: His-ISG65_(18-363), extracellular domain of invariant surface glycoprotein 65 of T. b. gambiense Y70A
- percent of parent [5]: 36%

Substance: human complement C3a (from UniProt P01024 672-748) (domain or fragment)
- Kd [6]: 78000 nM
- Kd [7]: 80000 nM
- Kd [8]: 18000 nM

Substance: human complement C3b (from UniProt P01024 23-667; P01024 749-1663) (domain or fragment)
- stoichiometry N [9]: 1
- Kd [1]: 81 nM

Substance: native human complement C3 (from UniProt P01024 23-667; P01024 672-1663) (natural protein)
- Kd [1]: 130 nM
